Measurements reported in US20260242735A1.

Columns and labels:
Assay in all cases: alanine scan, flow cytometry, HEK293-T
[1] = molecular target: human CD33 V73A (human) (UniProt P20138)
[2] = molecular target: human CD33 P184A (human) (UniProt P20138)
[3] = molecular target: human CD33 V138A (human) (UniProt P20138)
[4] = molecular target: human CD33 S195A (human) (UniProt P20138)
[5] = molecular target: human CD33 P155A (human) (UniProt P20138)
[6] = molecular target: human CD33 N53A (human) (UniProt P20138)
Sequence of human CD33 N53A (human) (P20138 18-364 N53A limits assumed): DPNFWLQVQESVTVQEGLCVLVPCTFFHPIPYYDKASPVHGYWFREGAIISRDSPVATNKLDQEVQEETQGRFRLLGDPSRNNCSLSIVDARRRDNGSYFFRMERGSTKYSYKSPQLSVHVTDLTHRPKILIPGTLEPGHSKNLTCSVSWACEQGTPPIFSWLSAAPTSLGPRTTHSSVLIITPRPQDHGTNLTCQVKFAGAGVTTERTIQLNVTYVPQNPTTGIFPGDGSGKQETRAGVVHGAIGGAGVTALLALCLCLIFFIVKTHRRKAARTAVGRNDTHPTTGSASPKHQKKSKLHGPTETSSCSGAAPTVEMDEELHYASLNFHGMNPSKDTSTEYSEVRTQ

[7] = molecular target: human CD33 F117A (human) (UniProt P20138)
[8] = molecular target: human CD33 E63A (human) (UniProt P20138)
[9] = molecular target: human CD33 R89A (human) (UniProt P20138)
[10] = molecular target: human CD33 L78A (human) (UniProt P20138)
Sequence of human CD33 L78A (human) (P20138 18-364 L78A limits assumed): as the sequence (P20138 18-364 N53A limits assumed) above, with A36N, L61A counted along it

[11] = molecular target: human CD33 G114A (human) (UniProt P20138)
[12] = molecular target: human CD33 H57A (human) (UniProt P20138)
Sequence of human CD33 H57A (human) (P20138 18-364 H57A limits assumed): as the sequence (P20138 18-364 N53A limits assumed) above, with A36N, H40A counted along it

[13] = molecular target: human CD33 V136A (human) (UniProt P20138)
[14] = molecular target: human CD33 S164A (human) (UniProt P20138)
Sequence of human CD33 S164A (human) (P20138 18-364 S164A limits assumed): as the sequence (P20138 18-364 N53A limits assumed) above, with A36N, S147A counted along it

[15] = molecular target: human CD33 H143A (human) (UniProt P20138)
Sequence of human CD33 H143A (human) (P20138 18-364 H143A limits assumed): as the sequence (P20138 18-364 N53A limits assumed) above, with A36N, H126A counted along it

[16] = molecular target: human CD33 T152A (human) (UniProt P20138)
[17] = molecular target: human CD33 L161A (human) (UniProt P20138)
[18] = molecular target: human CD33 K77A (human) (UniProt P20138)
[19] = molecular target: human CD33 P174A (human) (UniProt P20138)
[20] = molecular target: human CD33 C163A (human) (UniProt P20138)
[21] = molecular target: human CD33 F61A (human) (UniProt P20138)
[22] = molecular target: human CD33 S128A (human) (UniProt P20138)
[23] = molecular target: human CD33 P46A (human) (UniProt P20138)
[24] = molecular target: human CD33 Y50A (human) (UniProt P20138)
[25] = molecular target: human CD33 T173A (human) (UniProt P20138)
[26] = molecular target: human CD33 R91A (human) (UniProt P20138)
Sequence of human CD33 R91A (human) (P20138 18-364 R91A limits assumed): as the sequence (P20138 18-364 N53A limits assumed) above, with A36N, R74A counted along it

[27] = molecular target: human CD33 I176A (human) (UniProt P20138)
[28] = molecular target: human CD33 T185A (human) (UniProt P20138)
[29] = molecular target: human CD33 R119A (human) (UniProt P20138)
Sequence of human CD33 R119A (human) (P20138 18-364 R119A limits assumed): as the sequence (P20138 18-364 N53A limits assumed) above, with A36N, R102A counted along it

[30] = molecular target: human CD33 P132A (human) (UniProt P20138)
[31] = molecular target: human CD33 L141A (human) (UniProt P20138)
[32] = molecular target: human CD33 I67A (human) (UniProt P20138)
Sequence of human CD33 I67A (human) (P20138 18-364 I67A limits assumed): as the sequence (P20138 18-364 N53A limits assumed) above, with A36N, I50A counted along it

[33] = molecular target: human CD33 N160A (human) (UniProt P20138)
[34] = molecular target: human CD33 W167A (human) (UniProt P20138)
Sequence of human CD33 W167A (human) (P20138 18-364 W167A limits assumed): as the sequence (P20138 18-364 N53A limits assumed) above, with A36N, W150A counted along it

[35] = molecular target: human CD33 I47A (human) (UniProt P20138)
[36] = molecular target: human CD33 E81A (human) (UniProt P20138)
[37] = molecular target: human CD33 M120A (human) (UniProt P20138)
[38] = molecular target: human CD33 E154A (human) (UniProt P20138)
[39] = molecular target: human CD33 R98A (human) (UniProt P20138)
[40] = molecular target: human CD33 L93A (human) (UniProt P20138)
Sequence of human CD33 L93A (human) (P20138 18-364 L93A limits assumed): as the sequence (P20138 18-364 N53A limits assumed) above, with A36N, L76A counted along it

[41] = molecular target: human CD33 S178A (human) (UniProt P20138)
[42] = molecular target: human CD33 T142A (human) (UniProt P20138)
Sequence of human CD33 T142A (human) (P20138 18-364 T142A limits assumed): as the sequence (P20138 18-364 N53A limits assumed) above, with A36N, T125A counted along it

[43] = molecular target: human CD33 A108S (human) (UniProt P20138)
Sequence of human CD33 A108S (human) (P20138 18-364 A108S limits assumed): as the sequence (P20138 18-364 N53A limits assumed) above, with A36N, A91S counted along it

[44] = molecular target: human CD33 P145A (human) (UniProt P20138)
[45] = molecular target: human CD33 G64A (human) (UniProt P20138)

Sequence of human CD33 P184A (human) (P20138 18-364 P184A limits assumed): as the sequence (P20138 18-364 N53A limits assumed) above, with A36N, P167A counted along it
Sequence of human CD33 V73A (human) (P20138 18-364 V73A limits assumed): as the sequence (P20138 18-364 N53A limits assumed) above, with A36N, V56A counted along it

Refmab #7 (WM53) (antibody)
Mean % WT Binding [1]: 113 % WT binding | Mean % WT Binding [2]: 106 % WT binding | Mean % WT Binding [3]: 91 % WT binding | Mean % WT Binding [4]: 117 % WT binding | Mean % WT Binding [5]: 107 % WT binding | Mean % WT Binding [6]: 140 % WT binding | Mean % WT Binding [7]: 132 % WT binding | Mean % WT Binding [8]: 93 % WT binding | Mean % WT Binding [9]: 94 % WT binding | Mean % WT Binding [10]: 88.9 % WT binding | Mean % WT Binding [11]: 94.6 % WT binding | Mean % WT Binding [12]: 112 % WT binding | Mean % WT Binding [13]: 85.9 % WT binding | Mean % WT Binding [14]: 123 % WT binding | Mean % WT Binding [15]: 112 % WT binding | Mean % WT Binding [16]: 102 % WT binding | Mean % WT Binding [17]: 120 % WT binding | Mean % WT Binding [18]: 117 % WT binding | Mean % WT Binding [19]: 122 % WT binding | Mean % WT Binding [20]: 102 % WT binding | Mean % WT Binding [21]: 123 % WT binding | Mean % WT Binding [22]: 179 % WT binding | Mean % WT Binding [23]: 75.3 % WT binding | Mean % WT Binding [24]: 1 % WT binding | Mean % WT Binding [25]: 103 % WT binding | Mean % WT Binding [26]: 114 % WT binding | Mean % WT Binding [27]: 103 % WT binding | Mean % WT Binding [28]: 106 % WT binding | Mean % WT Binding [29]: 116 % WT binding | Mean % WT Binding [30]: 104 % WT binding | Mean % WT Binding [31]: 118 % WT binding | Mean % WT Binding [32]: 135 % WT binding | Mean % WT Binding [33]: 112 % WT binding | Mean % WT Binding [34]: 127 % WT binding | Mean % WT Binding [35]: 50.2 % WT binding | Mean % WT Binding [36]: 98.4 % WT binding | Mean % WT Binding [37]: 92 % WT binding | Mean % WT Binding [38]: 108 % WT binding | Mean % WT Binding [39]: 138 % WT binding | Mean % WT Binding [40]: 102 % WT binding | Mean % WT Binding [41]: 106 % WT binding | Mean % WT Binding [42]: 113 % WT binding | Mean % WT Binding [43]: 120 % WT binding | Mean % WT Binding [44]: 102 % WT binding | Mean % WT Binding [45]: 119 % WT binding
